From publication PMC9068813, “Enhancer RNAs stimulate Pol II pause release by harnessing multivalent interactions to NELF”

B1: Nr4a1-(b) eRNA 1-200 (structured_RNA)
RNA: AGUAGGGGCAUGGCUCGCCCGAGGCUCGGUGCUGCCCCGCCGCCCGCCGCGUUCCUUCCGGCUUGGUGUUCCGGUGGCGGGACCAGGGAAGGGAAGCUCGGGCCAAAUCCGGUCUCGGGCGAGGUGACAGAAAUUUGGAAUCUGACACCGGAGGAUGGCUGAGCUCCGGCUCCUCUGGGAGUGCAAUUACGGACUUCGCA
B2: Nr4a1-(a) eRNA 1-100 (structured_RNA)
RNA: GCGGUGAGAGUGAUUUUGUAACUCUAAAGUUACAGAGGGUUUUGUUGUGUUUUUAAUCAAGAGCCCUGGUUUUGAUUUGUGGGUAAUCUUUCUUUAAACC
B3: Arc eRNA 1-100 (structured_RNA)
RNA: AAAACACAGCCGCCAGGGUGGGGGUGGCAGCCUUGAACGCCACCCUCUAACUGGCAUGGGCAUCUGAACUCUCAGCUCUGGGGGUGUCUCAUCGGCCAGC
B4: Arc eRNA 1-200 (structured_RNA)
RNA: AAAACACAGCCGCCAGGGUGGGGGUGGCAGCCUUGAACGCCACCCUCUAACUGGCAUGGGCAUCUGAACUCUCAGCUCUGGGGGUGUCUCAUCGGCCAGCUGGCAGUAGCCCCCCCAACCCCACCCCUGAUGGAGAACUGCUCCUGUAUGAUCCAGCCCAGUGGGCGCACAGGGAGUUGGUAGGUGGGCACUCAGACUGG
B5: Nr4a1-(a) eRNA 1-200 (structured_RNA)
RNA: GCGGUGAGAGUGAUUUUGUAACUCUAAAGUUACAGAGGGUUUUGUUGUGUUUUUAAUCAAGAGCCCUGGUUUUGAUUUGUGGGUAAUCUUUCUUUAAACCUCGCCCAUUUCCGGCCUGGUGACCUGGGCCACUUUCUCAUGUUGACCCAGAUGAUCCUCAGUAGCAAGAACAAAAGGACAACAGAUGUGGAAACACUCAA

Experiments:
Conditions in all cases: protein: recombinant; tags: His-tag (Ni-NTA purified); copies: 1;1;1;1
[1] = molecular target: NELF double mutant (patch + ΔRRM) (UniProt Q9H3P2;Q8WX92;Q8IXH7;P18615 1-528;1-628;1-590;1-261+333-380, R291Q;K315M;K371M;K372M;K374M;K384M;K388M;R419Q;R506Q;internal_change); assay: EMSA (NELF release from PEC); large molar excess; 20 mM Na-HEPES pH 7.4, 100 mM NaCl, 25 mM KCl, 3 mM MgCl2, 2 mM DTT; assembly 30 °C, eRNA incubation 15-20 min at room temperature; 3.5% native PAGE 0.5x TBE at 4 °C; PEC about 0.1 µM NELF 0.15 µM
[2] = molecular target: T1, NELF-EΔRRM complex (NELFΔRRM) (UniProt Q9H3P2;Q8WX92;Q8IXH7;P18615 1-528;1-628;1-590;1-261+333-380, internal_change); assay: EMSA (NELF release from PEC); release not abolished; 20 mM Na-HEPES pH 7.4, 100 mM NaCl, 25 mM KCl, 3 mM MgCl2, 2 mM DTT; assembly 30 °C, eRNA incubation 15-20 min at room temperature; 3.5% native PAGE 0.5x TBE at 4 °C; PEC about 0.1 µM NELF 0.15 µM
[3] = molecular target: T1, NELF-EΔRRM complex (NELFΔRRM); assay: EMSA (NELF release from PEC); apparent Kd; NELF in PEC on N1; 20 mM Na-HEPES pH 7.4, 100 mM NaCl, 25 mM KCl, 3 mM MgCl2, 2 mM DTT; assembly 30 °C, eRNA incubation 15-20 min at room temperature; 3.5% native PAGE 0.5x TBE at 4 °C; PEC about 0.1 µM NELF 0.15 µM

T1 sequence (Q9H3P2 whole entry, stated change not applied, chain 1 of 4): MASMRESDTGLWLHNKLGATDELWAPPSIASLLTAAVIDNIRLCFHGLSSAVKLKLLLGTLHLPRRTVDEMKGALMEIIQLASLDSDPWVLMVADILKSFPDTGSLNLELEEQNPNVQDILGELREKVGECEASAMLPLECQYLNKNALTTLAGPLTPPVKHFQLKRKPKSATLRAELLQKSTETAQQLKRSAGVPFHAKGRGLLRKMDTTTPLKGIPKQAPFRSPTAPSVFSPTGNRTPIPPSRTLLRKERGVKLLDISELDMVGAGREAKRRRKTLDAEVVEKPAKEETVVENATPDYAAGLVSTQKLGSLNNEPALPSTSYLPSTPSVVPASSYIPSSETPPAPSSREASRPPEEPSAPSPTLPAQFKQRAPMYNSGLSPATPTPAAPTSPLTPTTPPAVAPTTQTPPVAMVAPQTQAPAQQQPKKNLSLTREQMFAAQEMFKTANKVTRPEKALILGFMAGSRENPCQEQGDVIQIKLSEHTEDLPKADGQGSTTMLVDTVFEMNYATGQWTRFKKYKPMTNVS
T1 sequence (Q8WX92 other isoform, or with tags, fused parts or gaps | mutant, chain 2 of 4): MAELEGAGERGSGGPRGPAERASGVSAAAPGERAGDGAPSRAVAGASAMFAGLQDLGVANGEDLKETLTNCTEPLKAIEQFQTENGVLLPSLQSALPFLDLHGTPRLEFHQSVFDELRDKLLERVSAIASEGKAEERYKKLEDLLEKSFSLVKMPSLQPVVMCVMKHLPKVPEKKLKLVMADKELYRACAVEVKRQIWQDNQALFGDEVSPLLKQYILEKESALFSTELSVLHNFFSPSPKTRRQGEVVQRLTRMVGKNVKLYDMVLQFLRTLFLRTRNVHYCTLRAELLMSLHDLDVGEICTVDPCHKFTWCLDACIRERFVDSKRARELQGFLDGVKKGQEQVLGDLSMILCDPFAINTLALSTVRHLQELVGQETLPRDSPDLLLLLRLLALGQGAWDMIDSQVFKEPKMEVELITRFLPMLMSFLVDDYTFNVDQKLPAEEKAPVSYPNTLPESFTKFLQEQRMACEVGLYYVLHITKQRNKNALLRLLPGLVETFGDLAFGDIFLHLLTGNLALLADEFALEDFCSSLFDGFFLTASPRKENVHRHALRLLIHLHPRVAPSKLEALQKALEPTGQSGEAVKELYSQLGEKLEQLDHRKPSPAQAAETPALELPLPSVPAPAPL
T1 sequence (Q8IXH7 whole entry, stated change not applied, chain 3 of 4): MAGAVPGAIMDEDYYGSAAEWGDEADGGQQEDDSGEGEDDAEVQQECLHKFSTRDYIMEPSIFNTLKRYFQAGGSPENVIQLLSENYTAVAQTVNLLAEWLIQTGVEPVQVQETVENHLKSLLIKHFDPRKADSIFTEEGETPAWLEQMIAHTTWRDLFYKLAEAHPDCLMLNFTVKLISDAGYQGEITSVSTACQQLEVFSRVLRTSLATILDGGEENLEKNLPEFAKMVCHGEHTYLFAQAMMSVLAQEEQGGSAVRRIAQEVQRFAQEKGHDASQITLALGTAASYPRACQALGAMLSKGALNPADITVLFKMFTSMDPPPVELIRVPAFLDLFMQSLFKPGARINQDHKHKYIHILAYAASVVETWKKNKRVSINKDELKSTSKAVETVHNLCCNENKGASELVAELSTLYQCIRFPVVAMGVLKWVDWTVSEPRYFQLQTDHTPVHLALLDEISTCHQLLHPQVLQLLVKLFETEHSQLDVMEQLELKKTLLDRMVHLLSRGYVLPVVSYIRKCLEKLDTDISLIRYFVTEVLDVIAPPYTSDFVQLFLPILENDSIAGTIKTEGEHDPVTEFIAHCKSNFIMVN
T1 sequence (P18615 other isoform, or with tags, fused parts or gaps | mutant, chain 4 of 4): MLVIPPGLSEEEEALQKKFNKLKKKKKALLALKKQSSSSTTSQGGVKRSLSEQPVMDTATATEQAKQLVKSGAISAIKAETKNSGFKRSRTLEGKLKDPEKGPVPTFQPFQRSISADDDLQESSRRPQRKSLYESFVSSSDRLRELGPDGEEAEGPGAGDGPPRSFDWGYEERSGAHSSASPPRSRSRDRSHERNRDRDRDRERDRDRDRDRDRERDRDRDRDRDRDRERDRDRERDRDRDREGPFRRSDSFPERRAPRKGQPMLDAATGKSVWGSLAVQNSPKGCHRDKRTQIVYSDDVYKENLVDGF
Chain of NELF double mutant (patch + ΔRRM) (Q9H3P2 whole entry, stated change not applied, chain 1 of 4): as the sequence (Q9H3P2 whole entry, stated change not applied, chain 1 of 4) above
Chain of NELF double mutant (patch + ΔRRM) (Q8WX92 other isoform, or with tags, fused parts or gaps with the stated changes, chain 2 of 4): as the sequence (Q8WX92 other isoform, or with tags, fused parts or gaps | mutant, chain 2 of 4) above
Chain of NELF double mutant (patch + ΔRRM) (Q8IXH7 whole entry R291Q/K315M/K371M/K372M/K374M/K384M/K388M/R419Q/R506Q, chain 3 of 4): as the sequence (Q8IXH7 whole entry, stated change not applied, chain 3 of 4) above, with R291Q, K315M, K371M, K372M, K374M, K384M, K388M, R419Q, R506Q counted along it
Chain of NELF double mutant (patch + ΔRRM) (P18615 other isoform, or with tags, fused parts or gaps with the stated changes, chain 4 of 4): as the sequence (P18615 other isoform, or with tags, fused parts or gaps | mutant, chain 4 of 4) above

Row | Binder | binding result [1] | binding result [2] | Kd [3]
1 | B1 | no binding |  | 
2 | B2 |  | binds | 
3 | B3 |  |  | 7.8 µM
4 | B4 | no binding |  | 0.33 µM
5 | B5 | no binding |  | 
